± gives the uncertainty stated by the source.
B1: RanBP-type and C3HC4-type zinc finger-containing protein 1, residues 369 to 411; numbered along this chain, Q9BYM8 (parent)
chain: YHCKTPDCKGWCFFEDDVNEFTCPVCFHVNCLLCKAIHEQMNC

Variants of: B1
Test: abundance fitness (aPCA) (normalised: wild type 0, dead -1); higher = more abundant; growth selection in yeast, the domain comes from the species named
Conditions: Homo sapiens

Row | Variant | abundance fitness
1 | W11G | -0.172 ± 0.037
2 | W11C | -0.088 ± 0.088
3 | W11D | -0.162 ± 0.064
4 | W11R | 0.036 ± 0.039
5 | W11E | 0.184 ± 0.045
6 | W11P | -0.529 ± 0.049
7 | W11S | 0.132 ± 0.047
8 | W11Y | -0.038 ± 0.13
9 | W11M | 0.191 ± 0.065
10 | W11V | 0.116 ± 0.047
11 | W11N | 0.063 ± 0.071
12 | W11K | 0.023 ± 0.05
13 | W11L | 0.044 ± 0.054
14 | W11T | 0.176 ± 0.049
15 | W11A | -0.006 ± 0.04
16 | F14Q | -0.295 ± 0.12
17 | F14W | 0.075 ± 0.24
18 | F14L | 0.243 ± 0.08
19 | F14E | -0.082 ± 0.082
20 | F14S | -0.165 ± 0.14
21 | F14G | 0.162 ± 0.27
22 | K4Y | -0.084 ± 0.096
23 | K9R | 0.036 ± 0.041
24 | K9Q | -0.033 ± 0.052

Row | Variant | abundance fitness
25 | K9V | 0.026 ± 0.04
26 | K9T | 0.056 ± 0.049
27 | K9A | 0.029 ± 0.044
28 | K9F | -0.378 ± 0.093
29 | K9W | -0.105 ± 0.05
30 | K9P | 0.047 ± 0.042
31 | K9H | -0.259 ± 0.079
32 | K9E | 0.064 ± 0.054
33 | K9Y | -0.485 ± 0.19
34 | K9S | 0.045 ± 0.041
35 | K9G | -0.042 ± 0.036
36 | K9N | -0.19 ± 0.082
37 | C12G | -0.274 ± 0.3
38 | C12R | -0.193 ± 0.1
39 | C12L | -0.348 ± 0.33
40 | C12V | 0.071 ± 0.11
41 | C12S | 0.252 ± 0.17
42 | C12E | -0.854 ± 0.31
43 | C12Y | 0.04 ± 0.18
44 | E15N | -0.295 ± 0.075
45 | E15P | -0.153 ± 0.06
46 | E15S | -0.254 ± 0.08
47 | E15G | -0.204 ± 0.039
48 | E15T | -0.042 ± 0.06

Row | Variant | abundance fitness
49 | E15L | -0.423 ± 0.087
50 | E15D | -0.201 ± 0.16
51 | E15V | -0.238 ± 0.044
52 | E15K | -0.169 ± 0.15
53 | E15I | -0.187 ± 0.24
54 | E15Q | -0.096 ± 0.068
55 | E15C | -0.32 ± 0.09
56 | E15H | -0.321 ± 0.14
57 | C8F | -0.554 ± 0.46
58 | C8V | -0.999 ± 0.1
59 | C8T | -0.919 ± 0.086
60 | C8E | -0.784 ± 0.13
61 | C8D | -0.812 ± 0.15
62 | C8L | -0.846 ± 0.14
63 | C8S | -0.682 ± 0.076
64 | C8R | -0.908 ± 0.055
65 | C8Q | -0.736 ± 0.12
66 | C8W | -0.949 ± 0.13
67 | C8M | -0.843 ± 0.086
68 | C8G | -0.691 ± 0.045
69 | C8A | -0.761 ± 0.065
70 | D7I | -0.812 ± 0.26
71 | D7W | -0.469 ± 0.044
72 | D7M | -0.202 ± 0.062

Row | Variant | abundance fitness
73 | D7H | -0.2 ± 0.067
74 | D7F | -0.245 ± 0.087
75 | D7P | -0.615 ± 0.11
76 | D7G | 0.057 ± 0.04
77 | D7V | -0.597 ± 0.047
78 | D7S | -0.165 ± 0.048
79 | D7K | -0.095 ± 0.074
80 | D7R | -0.117 ± 0.036
81 | D7Q | -0.194 ± 0.065
82 | D7L | -0.2 ± 0.04
83 | D7C | -0.656 ± 0.42
84 | D7E | 0.034 ± 0.054
85 | T5H | -0.159 ± 0.067
86 | T5A | -0.131 ± 0.062
87 | T5I | -0.533 ± 0.19
88 | T5Q | -0.004 ± 0.052
89 | T5L | -0.004 ± 0.057
90 | T5N | -0.236 ± 0.098
91 | T5E | -0.184 ± 0.061
92 | T5G | -0.308 ± 0.039
93 | T5S | -0.054 ± 0.059
94 | T5C | -0.063 ± 0.081
95 | T5M | 0.003 ± 0.059
96 | T5V | -0.083 ± 0.049

Row | Variant | abundance fitness
97 | T5P | -0.764 ± 0.083
98 | T5Y | -0.169 ± 0.098
99 | T5R | -0.099 ± 0.043
100 | D16G | -0.075 ± 0.047
101 | D16V | -0.075 ± 0.049
102 | D16W | -0.349 ± 0.072
103 | D16C | -0.182 ± 0.057
104 | D16K | 0.146 ± 0.063
105 | D16A | 0.006 ± 0.051
106 | D16M | -0.244 ± 0.073
107 | D16P | 0.113 ± 0.083
108 | D16R | 0.044 ± 0.046
109 | D16N | -0.171 ± 0.1
110 | D16L | -0.166 ± 0.054
111 | D16S | -0.14 ± 0.089
112 | D16Q | 0.045 ± 0.059
113 | D16E | 0.026 ± 0.053
114 | D16T | -0.088 ± 0.058
115 | D16I | -0.458 ± 0.17
116 | D16H | -0.045 ± 0.14
117 | G10D | -0.764 ± 0.067
118 | G10Y | -0.343 ± 0.46
119 | G10A | -0.541 ± 0.055
120 | G10P | -0.723 ± 0.14

Row | Variant | abundance fitness
121 | G10T | -0.494 ± 0.071
122 | G10H | -0.359 ± 0.11
123 | G10K | -0.621 ± 0.14
124 | G10F | -0.346 ± 0.17
125 | G10E | -0.573 ± 0.057
126 | G10V | -0.779 ± 0.081
127 | G10R | -0.66 ± 0.051
128 | G10L | -0.945 ± 0.077
129 | G10S | -0.587 ± 0.067
130 | G10M | -0.563 ± 0.11
131 | G10N | -0.79 ± 0.16
132 | D17W | -0.133 ± 0.065
133 | D17C | -0.215 ± 0.22
134 | D17A | -0.038 ± 0.048
135 | D17K | 0.079 ± 0.062
136 | D17E | 0.06 ± 0.046
137 | D17H | -0.021 ± 0.06
138 | D17Q | 0.142 ± 0.064
139 | D17T | -0.077 ± 0.073
140 | D17I | -0.265 ± 0.11
141 | D17G | 0.116 ± 0.043
142 | D17M | -0.256 ± 0.11
143 | D17V | 0.034 ± 0.055
144 | V18E | 0.001 ± 0.043

Row | Variant | abundance fitness
145 | V18D | -0.222 ± 0.075
146 | F13E | 0.428 ± 0.14
147 | F13G | -0.279 ± 0.082
148 | F13C | -0.111 ± 0.15
149 | F13T | -0.084 ± 0.13
150 | F13K | -0.084 ± 0.11
151 | F13S | 0.066 ± 0.45
152 | F13R | 0.092 ± 0.081
153 | F13V | -0.235 ± 0.094
154 | F13A | 0.124 ± 0.089
155 | P6D | -0.343 ± 0.075
156 | P6Q | -0.063 ± 0.046
157 | P6M | -0.23 ± 0.06
158 | P6H | -0.434 ± 0.12
159 | P6W | -0.629 ± 0.11
160 | P6A | -0.115 ± 0.044
161 | P6S | -0.266 ± 0.069
162 | P6E | -0.185 ± 0.049
163 | P6F | -0.493 ± 0.22
164 | P6C | -0.709 ± 0.1
165 | P6I | -0.411 ± 0.11
166 | P6G | -0.494 ± 0.044
167 | P6L | -0.365 ± 0.08
